Reference: patent US20240294670A1 (University of Texas, published 2024)

What was measured:
Experiment in all cases: anti-His co-IP of rCHI3L1 from Kupffer cell lysate, MS; listed under 'proteins bound to CHI3L1'
Q3UA81_MOUSE = biological target: T1, Q3UA81_MOUSE (mouse, UniProt Q3UA81 2-462)
T1 construct: also called tr|Q3UA81|Q3UA81_MOUSE
T1 sequence: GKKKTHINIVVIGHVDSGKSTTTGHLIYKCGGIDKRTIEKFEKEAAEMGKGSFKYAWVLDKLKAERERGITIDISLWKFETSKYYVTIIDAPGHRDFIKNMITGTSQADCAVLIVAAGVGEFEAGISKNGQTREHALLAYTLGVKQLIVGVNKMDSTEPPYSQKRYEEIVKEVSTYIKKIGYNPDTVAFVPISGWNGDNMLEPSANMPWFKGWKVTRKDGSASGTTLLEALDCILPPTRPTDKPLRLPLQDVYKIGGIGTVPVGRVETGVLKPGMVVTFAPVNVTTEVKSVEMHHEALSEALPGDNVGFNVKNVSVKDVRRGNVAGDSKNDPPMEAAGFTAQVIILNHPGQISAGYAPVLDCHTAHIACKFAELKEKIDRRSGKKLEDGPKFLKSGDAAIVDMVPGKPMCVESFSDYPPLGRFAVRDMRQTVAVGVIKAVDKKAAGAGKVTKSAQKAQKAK
Description: (§1) CHI3L1 interacts with CD44 on KCs. To further understand how CHI3L1 mediates the function of KCs to recruit platelets, the inventors set out to identify its receptor on KCs. They isolated KCs from WT mice treated with APAP for 3 h and incubated the cells with His-tagged rCHI3L1. The cell lysate was subjected to immunoprecipitation using an anti-His antibody. The “pulled down” fraction was subjected to LC/MS analyses. A partial list of proteins identified, including CHI3L1 itself, is shown in (Extended Data Table 1). Because CD44 is a cell membrane protein, the inventors decided to investigate it is a receptor for CHI3L1. They performed/immunoprecipitation experiments using liver homogenates obtained from WT and CD44^{-/-} mice after APAP treatment. […] Moreover, the inventors incubated rhCHI3L1 with human CD44 and then immunoprecipitated with an anti-CD44 antibody. The data confirmed a direct binding between CHI3L1 and CD44 (FIG. 3C). Consistent with the notion that many cell types express CD44, they detected CD44 express on various hepatic non-parenchymal cells (NPCs) except B cells and DCs (summarized in Extended Data Table 2). However, when they incubated liver NPCs with His-tagged rCHI3L1, the inventors observed that the only CD44-expressing cells that could bind to CHI3L1 were KCs (FIG. 3D).

Q3UQ71_MOUSE = biological target: T2, Q3UQ71_MOUSE (mouse, UniProt Q3UQ71 1-554)
T2 construct: also called tr|Q3UQ71|Q3UQ71_MOUSE
T2 sequence: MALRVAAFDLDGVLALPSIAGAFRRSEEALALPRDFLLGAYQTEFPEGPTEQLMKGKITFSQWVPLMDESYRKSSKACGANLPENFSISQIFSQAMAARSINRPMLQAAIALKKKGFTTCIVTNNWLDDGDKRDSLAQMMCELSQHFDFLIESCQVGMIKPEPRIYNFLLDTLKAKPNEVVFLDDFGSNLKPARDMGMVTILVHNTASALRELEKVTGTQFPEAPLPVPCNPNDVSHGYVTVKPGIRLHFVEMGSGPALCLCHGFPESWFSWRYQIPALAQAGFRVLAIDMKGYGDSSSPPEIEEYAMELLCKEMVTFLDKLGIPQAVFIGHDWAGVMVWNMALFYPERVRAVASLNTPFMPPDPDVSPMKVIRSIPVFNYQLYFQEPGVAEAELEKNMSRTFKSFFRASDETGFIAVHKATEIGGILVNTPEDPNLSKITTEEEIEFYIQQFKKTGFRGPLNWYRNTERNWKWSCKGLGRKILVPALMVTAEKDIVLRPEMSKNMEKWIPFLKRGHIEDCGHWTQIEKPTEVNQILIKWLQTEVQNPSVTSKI
Description: as §1

Q3T9S7_MOUSE = biological target: T3, Q3T9S7_MOUSE (mouse, UniProt Q3T9S7 22-1179)
T3 construct: also called tr|Q3T9S7|Q3T9S7_MOUSE
T3 sequence: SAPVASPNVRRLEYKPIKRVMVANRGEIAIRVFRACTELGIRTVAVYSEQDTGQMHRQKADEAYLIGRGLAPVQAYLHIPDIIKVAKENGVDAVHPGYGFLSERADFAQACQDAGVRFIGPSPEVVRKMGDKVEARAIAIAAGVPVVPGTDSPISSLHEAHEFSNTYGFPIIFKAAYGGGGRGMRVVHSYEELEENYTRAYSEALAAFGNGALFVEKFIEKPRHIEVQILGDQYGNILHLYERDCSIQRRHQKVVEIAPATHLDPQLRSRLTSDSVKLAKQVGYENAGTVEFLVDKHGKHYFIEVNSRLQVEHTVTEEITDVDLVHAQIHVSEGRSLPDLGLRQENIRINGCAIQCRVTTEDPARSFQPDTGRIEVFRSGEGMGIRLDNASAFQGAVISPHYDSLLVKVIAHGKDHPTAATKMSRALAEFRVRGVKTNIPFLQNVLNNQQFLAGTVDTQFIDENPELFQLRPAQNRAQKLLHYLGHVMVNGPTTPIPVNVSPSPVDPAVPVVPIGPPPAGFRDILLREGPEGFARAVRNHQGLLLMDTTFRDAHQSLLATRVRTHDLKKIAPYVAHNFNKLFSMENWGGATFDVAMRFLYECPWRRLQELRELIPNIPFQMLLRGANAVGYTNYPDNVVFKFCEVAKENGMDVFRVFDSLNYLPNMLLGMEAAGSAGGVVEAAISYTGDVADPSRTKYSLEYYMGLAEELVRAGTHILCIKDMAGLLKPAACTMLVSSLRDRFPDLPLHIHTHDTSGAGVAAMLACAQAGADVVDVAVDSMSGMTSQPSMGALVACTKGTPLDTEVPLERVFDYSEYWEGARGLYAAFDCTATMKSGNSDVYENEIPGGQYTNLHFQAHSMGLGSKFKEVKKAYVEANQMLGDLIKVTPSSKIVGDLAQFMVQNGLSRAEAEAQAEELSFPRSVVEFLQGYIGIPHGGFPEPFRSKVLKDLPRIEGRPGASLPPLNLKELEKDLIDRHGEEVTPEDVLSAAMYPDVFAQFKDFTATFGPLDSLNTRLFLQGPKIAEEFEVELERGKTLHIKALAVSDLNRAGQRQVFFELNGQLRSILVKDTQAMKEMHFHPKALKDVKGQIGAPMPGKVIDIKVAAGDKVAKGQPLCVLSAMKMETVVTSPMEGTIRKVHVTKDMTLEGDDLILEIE
Description: as §1

binding result (Q3UA81_MOUSE): binds
binding result (Q3UQ71_MOUSE): binds
binding result (Q3T9S7_MOUSE): binds
B1: recombinant mouse CHI3L1 (ligand)
chain: not shown
notes: His-tagged; also called mCHI3L1; mChi3l1
